Source: patent US20220105194A1, “CONJUGATE COMPRISING LIGAND, SPACER, PEPTIDE LINKER, AND BIOMOLECULE” (ASTELLAS PHARMA INC., priority 2019, published 2022)
Where two headings read alike, the source gives them in different places.

Columns and labels:
[1] = system: human colorectal cancer cell line LS174T cells; assay: Example 4-4: amount of tumor accumulation of Gd-labeled conjugates (tumor-bearing mice); conditions: tail vein, 0.02 mg protein per animal, 24 hours, ICP-MS, mean of 3 cases
Description: (§1) A Gd-labeled conjugate of the conjugate containing a peptide linker produced in one of the above Examples was administered from the tail vein of tumor-bearing mice so that the protein mass was 0.02 mg (100 μL) per animal. As the tumor-bearing mice used in the present Example, mice (BALB/c nu/nu) that were in a tumor-bearing state brought about by transplanting human colorectal cancer cell line LS174T cells (ATCC(registered trademark); CL-188) at 2.0 to 5.0×10^6 cells/mouse subcutaneously on the back before administration of the sample were used. 24 hours after administration of the sample, the mice were sacrificed, the kidneys and the tumor were removed, and the amounts of Gd in the kidneys and in the tumor were measured using ICP-MS. The present test was carried out in 3 cases in each group, and the mean value of the 3 cases was calculated. The amount of Gd contained per kidney after administration was shown as a percentage of the amount of Gd administered (% of dose/tissue), and the amount of Gd contained per g of tumor tissue was shown as a percentage of the total amount of Gd administered (% of dose/g).

[2] = Example 4-1: kidney accumulation evaluation test of Gd-labeled conjugates (normal mice); conditions: about 24 hours, relative to control conjugate Ex-No 47
Description: (§2) A Gd-labeled conjugate of the conjugate containing a peptide linker produced in one of the above Examples was administered from the tail vein of mice (BALB/c or BALB/c nu/nu) so that the protein mass was 0.02 mg (100 μL) per animal. After about 24 hours, the mice were sacrificed and the kidneys were removed, and the amount of Gd in the kidneys was measured using ICP-MS. The present test was carried out in 3 cases in each group, the mean value of the 3 cases was calculated, and the amount of Gd contained per kidney after administration was shown as a percentage (% of dose/tissue) of the total amount of Gd administered.
(§3) Based on the percentage of the control conjugate (% of dose/tissue), the proportion of decrease in the amount of Gd contained in the kidneys of each of the conjugates having a peptide linker was determined and shown in Table 28.

[3] = set-up: species or system mice (BALB/c nu/nu); conditions: mouse, in vivo
Description: as §1

[4] = set-up: species or system mice (BALB/c or BALB/c nu/nu); conditions: mouse, in vivo
Description: as §2

[5] = mouse, in vivo
Description: as §2

[6] = mouse, in vivo; remark: listed apart in the source
Description: as §2, §3

[7] = target: human cancer-specific MUC1; assay: Example 6-2: ELISA binding activity of anti-human MUC1 antibody Fab^5 fragment conjugates; conditions: immobilized human cancer-specific MUC1 peptide
human cancer-specific MUC1, sequence (P15941 136-155 limits assumed): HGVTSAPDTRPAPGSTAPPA
Description: Each anti-human MUC1 antibody Fab^5 fragment conjugate prepared by the method of Example 5 was subjected to ELISA to evaluate the binding activity thereof to human cancer-specific MUC1. In the present test, 20×PBS/Tween 20 Buffer (Thermo Fisher Scientific Inc., 28352) diluted 20-fold with distilled water was used as a wash liquid. In addition, for bovine serum albumin (BSA) used in the present test, 30% Bovine Serum Albumin solution (Sigma-Aldrich, Inc., A9576-50ML) was added in an appropriate proportion for use. A human cancer-specific MUC1 peptide (PTL 1) at 0.5 μmol/L was added to a Nunc MaxiSorp White 384 plate (Nunc, 460372) at 30 μL per well, and the plate was incubated overnight at 4° C. for immobilization. The MUC1 peptide was removed by reverse centrifugation, and then blocking was carried out by adding a PBS/Tween 20 buffer containing 5.0% BSA. […] The substrate was incubated at room temperature for 15 minutes, and then a signal value thereof was measured using an Envision counter (PerkinElmer, Inc.).
The test for each antibody was carried out in duplicate, and the EC50 value was calculated using a 4-parameter logistic curve model.

[8] = target: human cancer-specific MUC1; assay: Example 6-1: ELISA binding activity of anti-human MUC1 antibody Fab^5 fragment conjugates; conditions: immobilized human cancer-specific MUC1 peptide, single runs of P10-2, read-out: EC50 value (nM) for each of 3 runs
[9] = set-up: species or system mice (BALB/c nu/nu); conditions: mouse, in vivo; remark: listed apart in the source
Description: (§4) A Gd-labeled conjugate of the conjugate containing a peptide linker produced in one of the above Examples was administered from the tail vein of the tumor-bearing mice so that the protein mass was 0.02 mg (100 μL) per animal. As the tumor-bearing mice used in the present Example, mice (BALB/c nu/nu) that were in a tumor-bearing state brought about by transplanting human breast cancer cell line MDA-MB-468 (ATCC(registered trademark); HTB-132) at 5.0×10^6 cells/mouse subcutaneously on the back before administration of the sample were used. 24 hours after administration of the sample, the mice were sacrificed, the kidneys and the tumor were removed, and the amounts of Gd in the kidneys and in the tumor were measured using ICP-MS. The present test was carried out in 3 cases in each group, and the mean value of the 3 cases was calculated. The amount of Gd contained per kidney after administration was shown as a percentage of the amount of Gd administered (% of dose/tissue), and the amount of Gd contained per g of tumor tissue was shown as a percentage of the total amount of Gd administered (% of dose/g).

[10] = set-up: species or system mice (BALB/c or BALB/c nu/nu); conditions: mouse, in vivo; remark: listed apart in the source
Description: as §2
Based on the amount of Gd contained in the kidneys of the control conjugate, the proportion of decrease in the amount of Gd contained in the kidneys of each of the conjugates having a peptide linker was determined.

[11] = system: human breast cancer cell line MDA-MB-468; assay: Example 8: amount of tumor accumulation of Gd-labeled conjugates (tumor-bearing mice); conditions: MDA-MB-468 tumor-bearing mice, 24 hours; control conjugate Ex-No. 108, mean of 2 runs
Description: as §4

B1: [Gd/DOTA-[2,5-(1,2,3,4-tetrahydroisoquinoline)]-C(═O)-Met-Gly-Lys*-Z2(#N)]p-Fab^2 (conjugate)
heavy: EVQLVESGGGLVQPGGSLRLSCAASGFNIRDTYMHWVRQAPGKGLEWVARIDPANGNSRYVPKFQGRFTISADTSRNTAYLQMNSLRAEDTAVYYCAPFGYYVSDYAMAYWGQGTLVTVSSASTKGPSVFPLAPSSKSTSGGTAALGCLVKDYFPEPVTVSWNSGALTSGVHTFPAVLQSSGLYSLSSVVTVPSSSLGTQTYICNVNHKPSNTKVDKKVEPKSCD
light: DIQLTQSPSSLSASVGDRVTITCRAGESVDIFGVGFLHWYQQKPGKAPKLLIYRASNLESGIPSRFSGSGSRTDFTLTISSLQPEDFATYYCQQTNEDPYTFGQGTKVEIKRTVAAPSVFIFPPSDEQLKSGTASVVCLLNNFYPREAKVQWKVDNALQSGNSQESVTEQDSKDSTYSLSSTLTLSKADYEKHKVYACEVTHQGLSSPVTKSFNRGEC
- Amount of tumor accumulation (tumor-bearing mice), % of dose/g [1]: 4.53 % of dose/g
- Proportion of decrease (%) in the amount of Gd contained in the kidneys [2]: 82.9%
- Renal residual amount (cancer-bearing mice), % of dose/tissue [3]: 7.30 % of dose/tissue
- Renal residual amount (cancer-bearing mice), Proportion of decrease (%) [3]: 71.74%

B2: [Gd/DOTA]p-Fab^2 (conjugate)
heavy: EVQLVESGGGLVQPGGSLRLSCAASGFNIRDTYMHWVRQAPGKGLEWVARIDPANGNSRYVPKFQGRFTISADTSRNTAYLQMNSLRAEDTAVYYCAPFGYYVSDYAMAYWGQGTLVTVSSASTKGPSVFPLAPSSKSTSGGTAALGCLVKDYFPEPVTVSWNSGALTSGVHTFPAVLQSSGLYSLSSVVTVPSSSLGTQTYICNVNHKPSNTKVDKKVEPKSCD
light: DIQLTQSPSSLSASVGDRVTITCRAGESVDIFGVGFLHWYQQKPGKAPKLLIYRASNLESGIPSRFSGSGSRTDFTLTISSLQPEDFATYYCQQTNEDPYTFGQGTKVEIKRTVAAPSVFIFPPSDEQLKSGTASVVCLLNNFYPREAKVQWKVDNALQSGNSQESVTEQDSKDSTYSLSSTLTLSKADYEKHKVYACEVTHQGLSSPVTKSFNRGEC
- Renal residual amount (% of dose/tissue), Mean [4]: 29.33 % of dose/tissue
- Renal residual amount (normal mice), % of dose/tissue [5]: 31.30 % of dose/tissue
- Geometric mean (% of dose/tissue) [6]: 31.0 % of dose/tissue
- Renal residual amount (% of dose/tissue), Mean [3]: 25.83 % of dose/tissue

B3: P10-2: anti-human MUC1 antibody Fab fragment disclosed in International Publication WO2018/092885 (antibody)
heavy: QVQLVQSGAEVKKPGASVKVSCKASGYTFTNYGLSWVRQAPGQGLEWMGENHPGSGIIYHNEKFRGRVTLTADRSTSTAYMELSSLRSEDTAVYYCARSSGTRGFDYWGQGTLVTVSSASTKGPSVFPLAPSSKSTSGGTAALGCLVKDYFPEPVTVSWNSGALTSGVHTFPAVLQSSGLYSLSSVVTVPSSSLGTQTYICNVNHKPSNTKVDKKVEPKSCD
light: DVVMTQTPLSLSVTPGQPASISCRSSQSIVHSNGNTYLEWYLQKPGQSPQLLIYRVSNRFSGVPDRFSGSGSGTDFTLKISRVEAEDVGVYYCFQGSHGPWTFGQGTKLEIKRTVAAPSVFIFPPSDEQLKSGTASVVCLLNNFYPREAKVQWKVDNALQSGNSQESVTEQDSKDSTYSLSSTLTLSKADYEKHKVYACEVTHQGLSSPVTKSFNRGEC
- EC50 ([7]; single runs of P10-2, read-out: EC50 value (nM) for each of 3 runs): 0.06 nM
- EC50 [8]: 0.06 nM

B4: [Gd/DOTA-NH—CH2-(1,4-Ph)-NH—C(═O)-Met-Ile-NH—(CH2)2—Z1(#S)]p-Fab^5 (conjugate)
heavy: QVQLVQSGAEVKKPGASVKVSCKASGYTFTNYGLSWVRQAPGQGLEWMGENHPGSGIIYHNEKFRGRVTLTADRSTSTAYMELSSLRSEDTAVYYCARSSGTRGFDYWGQGTLVTVSSASTKGPSVFPLAPSSKSTSGGTAALGCLVKDYFPEPVTVSWNSGALTSGVHTFPAVLQSSGLYSLSSVVTVPSSSLGTQTYICNVNHKPSNTKVDKKVEPKSCD
light: DVVMTQTPLSLSVTPGQPASISCRSSQSIVHSNGNTYLEWYLQKPGQSPQLLIYRVSNRFSGVPDRFSGSGSGTDFTLKISRVEAEDVGVYYCFQGSHGPWTFGQGTKLEIKRTVAAPSVFIFPPSDEQLKSGTASVVCLLNNFYPREAKVQWKVDNALQSGNSQESVTEQDSKDSTYSLSSTLTLSKADYEKHKVYACEVTHQGLSSPVTKSFNRGEC
- EC50 ([7]; run in duplicate, read-out: EC50): 0.09 nM

B5: Ex-No 108 (conjugate)
heavy: QVQLVQSGAEVKKPGASVKVSCKASGYTFTNYGLSWVRQAPGQGLEWMGENHPGSGIIYHNEKFRGRVTLTADRSTSTAYMELSSLRSEDTAVYYCARSSGTRGFDYWGQGTLVTVSSASTKGPSVFPLAPSSKSTSGGTAALGCLVKDYFPEPVTVSWNSGALTSGVHTFPAVLQSSGLYSLSSVVTVPSSSLGTQTYICNVNHKPSNTKVDKKVEPKSCD
light: DVVMTQTPLSLSVTPGQPASISCRSSQSIVHSNGNTYLEWYLQKPGQSPQLLIYRVSNRFSGVPDRFSGSGSGTDFTLKISRVEAEDVGVYYCFQGSHGPWTFGQGTKLEIKRTVAAPSVFIFPPSDEQLKSGTASVVCLLNNFYPREAKVQWKVDNALQSGNSQESVTEQDSKDSTYSLSSTLTLSKADYEKHKVYACEVTHQGLSSPVTKSFNRGEC
- Renal residual amount (% of dose/tissue), Mean [9]: 34.67 % of dose/tissue
- Renal residual amount (normal mice), Mean (% of dose/tissue) [10]: 33.00 % of dose/tissue
- Amount of tumor accumulation (% of dose/g), Mean [11]: 0.92 % of dose/g
